Assay results published in IntAct's records for PubMed 21896273.

B1: Signal peptide peptidase-like 2A (Mus musculus), Q9JJF9 (parent)
chain: MGLLHSLHAPAAALLWSCLLGLAAAQEAILHASTNGVSSLSKDYCMYYNNNWTRLPSSLENATSLSLMNLTGTALCHLSDIPPDGIRNKAVVVHWGPCHFLEKARIAQEGGAAALLIANNSVLIPSSRNKSTFQNVTVLIAVITQKDFKDMKETLGDDITVKMYSPSWPNFDYTLVVIFVIAVFTVALGGYWSGLIELENMKSVEDAEDRETRKKKDDYLTFSPLTVVVFVVICCIMIVLLYFFYRWLVYVMIAIFCIASSMSLYNCLSALIHRMPCGQCTILCCGKNIKVSLIFLSGLCISVAVVWAVFRNEDRWAWILQDILGIAFCLNLIKTMKLPNFMSCVILLGLLLIYDVFFVFITPFITKNGESIMVELAAGPFENAEKLPVVIRVPKLMGYSVMSVCSVPVSVLGFGDIIVPGLLIAYCRRFDVQTGSSIYYISSTIAYAVGMIITFVVLMVMKTGQPALLYLVPCTLITVSVVAWSRKEMKKFWKGSSYQVMDHLDYSTNEENPVTTDEQIVQQ

Variants of: B1
Conditions: with lamp2_human LAMP2, P13473
Sequence of lamp2_human LAMP2, P13473 (P13473 whole entry): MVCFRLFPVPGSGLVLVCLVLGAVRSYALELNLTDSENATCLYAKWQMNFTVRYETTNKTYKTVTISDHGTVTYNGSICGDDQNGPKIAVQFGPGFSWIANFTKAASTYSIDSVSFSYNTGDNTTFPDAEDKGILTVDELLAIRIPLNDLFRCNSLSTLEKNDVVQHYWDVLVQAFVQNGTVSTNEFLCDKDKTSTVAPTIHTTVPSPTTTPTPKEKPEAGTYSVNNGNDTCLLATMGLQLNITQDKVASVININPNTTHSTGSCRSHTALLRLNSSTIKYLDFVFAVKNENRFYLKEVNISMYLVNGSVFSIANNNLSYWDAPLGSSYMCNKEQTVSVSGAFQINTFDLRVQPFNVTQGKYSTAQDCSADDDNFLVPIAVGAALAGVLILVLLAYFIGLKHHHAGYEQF

effect of a mutation on the interaction | Variant
disrupting interaction | Y506A

Variants of: B1
Conditions: with lamp2_human LAMP2, P13473
Remark: another data set of the same source

effect of a mutation on the interaction | Variant
disrupting interaction | Y498A
